From patent publication US20070082369A1 come the findings set out here.

Experiment [1] addresses E. coli-expressed recombinant Der f 1 protein PDerf1303c (Dermatophagoides farinae) (UniProt P16311). The experiment in a line: sandwich ELISA, capture MAb 6A8, detection biotinylated MAb 4C1; 25 ng protein per well. Background: ELISA stands for enzyme-linked immunosorbent assay.
The target in experiment [2] is Pichia-expressed recombinant Der f 1 protein PDerf1303b (Dermatophagoides farinae) (UniProt P16311). The experiment is described as above.
Experiment [3] concerns the target Heska native Derf1 (Dermatophagoides farinae) (UniProt P16311). The experiment is described as above.
In experiment [4] the target is E. coli-expressed recombinant Der f 1 protein PDerf1303c (Dermatophagoides farinae) (UniProt P16311). The experiment in a line: sandwich ELISA, capture MAb 6A8, detection biotinylated MAb 4C1; 1.5 ng protein per well.
In experiment [5] the target is Pichia-expressed recombinant Der f 1 protein PDerf1303b (Dermatophagoides farinae) (UniProt P16311). The experiment is described as above.
Experiment [6] addresses Heska native Derf1 (Dermatophagoides farinae) (UniProt P16311). Described as above.
In experiment [7] the target is E. coli-expressed recombinant Der f 1 protein PDerf1303c (Dermatophagoides farinae) (UniProt P16311). The experiment in a line: sandwich ELISA, capture MAb 6A8, detection biotinylated MAb 4C1; 0.75 ng protein per well.
Experiment [8] deals with Pichia-expressed recombinant Der f 1 protein PDerf1303b (Dermatophagoides farinae) (UniProt P16311). The description is as above.
Experiment [9] deals with Heska native Derf1 (Dermatophagoides farinae) (UniProt P16311). The description is as above.
In experiment [10] the target is E. coli-expressed recombinant Der f 1 protein PDerf1303c (Dermatophagoides farinae) (UniProt P16311). The experiment in a line: sandwich ELISA, capture MAb 6A8, detection biotinylated MAb 4C1; 50 ng protein per well.
In experiment [11] the target is Pichia-expressed recombinant Der f 1 protein PDerf1303b (Dermatophagoides farinae) (UniProt P16311). The experiment is described as above.
Experiment [12] has as its target Heska native Derf1 (Dermatophagoides farinae) (UniProt P16311). Described as above.
Experiment [13] addresses E. coli-expressed recombinant Der f 1 protein PDerf1303c (Dermatophagoides farinae) (UniProt P16311). Kind of experiment: sandwich ELISA, capture MAb 6A8, detection biotinylated MAb 4C1; 3.1 ng protein per well.
Experiment [14] addresses Pichia-expressed recombinant Der f 1 protein PDerf1303b (Dermatophagoides farinae) (UniProt P16311). Described as above.
Experiment [15] concerns the target Heska native Derf1 (Dermatophagoides farinae) (UniProt P16311). Described as above.
The target in experiment [16] is E. coli-expressed recombinant Der f 1 protein PDerf1303c (Dermatophagoides farinae) (UniProt P16311). The experiment in a line: sandwich ELISA, capture MAb 6A8, detection biotinylated MAb 4C1; 6.25 ng protein per well.
Experiment [17] addresses Pichia-expressed recombinant Der f 1 protein PDerf1303b (Dermatophagoides farinae) (UniProt P16311). The experiment is described as above.
In experiment [18] the target is Heska native Derf1 (Dermatophagoides farinae) (UniProt P16311). The description is as above.
For experiment [19], the target named is E. coli-expressed recombinant Der f 1 protein PDerf1303c (Dermatophagoides farinae) (UniProt P16311). Kind of experiment: sandwich ELISA, capture MAb 6A8, detection biotinylated MAb 4C1; 2.5 ng protein per well.
The target of experiment [20] is Pichia-expressed recombinant Der f 1 protein PDerf1303b (Dermatophagoides farinae) (UniProt P16311). The description is as above.
Experiment [21] has as its target Heska native Derf1 (Dermatophagoides farinae) (UniProt P16311). Described as above.

“anti-Der f 1 protein monoclonal antibody 6A8”: the OD was determined as 1770 OD x1000 in [1]; 2160 OD x1000 in [2]; 2140 OD x1000 in experiment [3]; 268 OD x1000 in experiment [4]; 916 OD x1000 in [5]; 2040 OD x1000 in experiment [6]. For the same substance, the OD amounted to 136 OD x1000 in experiment [7]; 405 OD x1000 in experiment [8]; 1740 OD x1000 in experiment [9]; 1980 OD x1000 in [10]; 2150 OD x1000 in [11]; 2180 OD x1000 in experiment [12]. Further, the OD in experiment [13] came out at 503 OD x1000; in [14], 1540 OD x1000; in experiment [15] it was 2220 OD x1000; in experiment [16], 890 OD x1000; in experiment [17] it was 1960 OD x1000; in experiment [18], 2200 OD x1000. Moreover, the figures for the OD in experiment [19], in [20] and in experiment [21] were 1370 OD x1000, 2090 OD x1000 and 2290 OD x1000, respectively.
